The values below come from patent US20150230430A1 (University of Pennsylvania, published 2015).

The target of the assay is T1, Gonadotropin Releasing Hormone (GnRH) peptide (mammalian (same amino acid sequence in …, N-terminal pyroglutamic acid (pGlu))); C-terminal amide (GlyNH2)).
T1 construct: GnRH peptide bought from Peptides International; also called LHRH; Luteinizing Hormone Releasing Hormone
T1 peptide: EHWSYGLRPG
As to the kind of experiment: competition ELISA (Friguet method): supernatant pre-incubated overnight with free GnRH peptide, then GnRH-coated plate; nonlinear regression. Here is the method:
Supernatant was harvested […] after transfection and passed through a 0.2 μm syringe filter (Corning, Corning, N.Y.). Filtered supernatant was evaluated for total antibody expression and GnRH binding activity using protein A and GnRH ELISAs, respectively. Polystyrene ELISA plates (Corning) were coated overnight at room temperature with protein A (5 μg/mL, Sigma Aldrich, St Louis, Mo.) or GnRH peptide (1 μg/mL, Peptides International, Louisville, Ky.) in phosphate buffered saline. Plates were washed five times with PBS containing 0.05% tween 20 (Sigma), then blocked for one hour at room temperature with 1% bovine serum albumin in PBS. Filtered supernatant serially diluted two-fold in PBS was incubated in blocked wells for one hour. Plates were washed five times, then incubated for one hour with a biotinylated goat anti-human IgG1 antibody (Jackson ImmunoResearch, West Grove, Pa.) diluted 1:10,000 in blocking solution. Plates were then washed, incubated with streptavidin-HRP (Abcam, Cambridge, Mass.) diluted 1:30,000 in blocking solution for one hour, washed again, and developed with TMB substrate (Sigma). The reaction was stopped after 20 minutes by the addition of 2 N sulfuric acid. Absorbance was measured at […], with a reading at 540 nm subtracted as background. […] The fraction of antibody binding sites occupied by GnRH was calculated using the method of Stevens, 1987. […]

B1: chimeric anti-GnRH antibody (murine variable regions of hybridoma USASK/DSIL-LHRH-A1, ATCC HB-9094, fused with human IgG1 heavy chain and kappa light chain … (antibody, V domains shown)
VH: QIQLVQSGPELKKPGETVKISCKASGYPFTNYGMNWVKQAPGKGLKWMGWINTYTGEPACADDFRGRFAISLETSARTAYLQINNLINEDTATYFCARTGGGRYNYGMDYWGQGTSVTVSS
VL: QIVLTQSPAIMSASPGEKVTITCSATSSVSYIHWFQQKPGTSPKLWIYSTSNLASGVPVRFSGSGSGTSYSLTISRMEAEDAATYYCQQRSSYPPTFGGGTKLEIKR
notes: Full-length chimeric heavy and light chains: murine variable regions on human IgG1 and human kappa constant domains; Tested as filtered supernatant of transiently transfected 293 HEK cells; also called chimeric GnRH antibody; chimeric antibody
On to B1, for which the affinity, expressed as Kd, was 3.9 nM.
